Laboratory results taken from patent US20150064134A1.

Columns and labels:
Experiment in all cases: cell-based or functional assay
CDK5/p35(h) (human) = CDK5/p35(h) (human) (UniProt Q00535)
DRAK1(h) (human) = molecular target: T1, DRAK1(h) (human) (UniProt Q9UEE5)
T1 sequence (looked up): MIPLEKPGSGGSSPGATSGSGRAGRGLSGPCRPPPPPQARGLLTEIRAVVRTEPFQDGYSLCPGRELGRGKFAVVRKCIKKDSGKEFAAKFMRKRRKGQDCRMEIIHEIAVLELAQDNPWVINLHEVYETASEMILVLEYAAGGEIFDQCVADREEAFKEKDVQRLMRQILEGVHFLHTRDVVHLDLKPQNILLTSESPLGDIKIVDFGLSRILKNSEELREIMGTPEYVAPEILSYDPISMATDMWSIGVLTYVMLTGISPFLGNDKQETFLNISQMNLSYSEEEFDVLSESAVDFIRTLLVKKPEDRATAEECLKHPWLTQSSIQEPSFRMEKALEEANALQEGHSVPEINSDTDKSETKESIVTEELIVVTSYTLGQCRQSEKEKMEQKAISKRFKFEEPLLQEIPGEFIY

EGFR(h) (human) = EGFR(h) (human) (UniProt P00533)
FGFR1(h) (human) = FGFR1(h) (human) (UniProt P11362)
Chain of FGFR1(h) (human) (P11362 456-765 limits assumed): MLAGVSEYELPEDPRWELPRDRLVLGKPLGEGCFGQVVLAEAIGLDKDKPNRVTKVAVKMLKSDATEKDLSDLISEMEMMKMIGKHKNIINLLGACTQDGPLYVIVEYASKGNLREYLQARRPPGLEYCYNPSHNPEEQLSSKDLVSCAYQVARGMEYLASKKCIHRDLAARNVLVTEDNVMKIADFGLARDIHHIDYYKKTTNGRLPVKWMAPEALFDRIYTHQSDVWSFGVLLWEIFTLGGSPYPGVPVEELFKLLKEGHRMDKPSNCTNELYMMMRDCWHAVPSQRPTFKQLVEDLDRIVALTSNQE

IKKα(h) (human) = molecular target: T2, IKKα(h) (human) (UniProt O15111)
T2 sequence (looked up): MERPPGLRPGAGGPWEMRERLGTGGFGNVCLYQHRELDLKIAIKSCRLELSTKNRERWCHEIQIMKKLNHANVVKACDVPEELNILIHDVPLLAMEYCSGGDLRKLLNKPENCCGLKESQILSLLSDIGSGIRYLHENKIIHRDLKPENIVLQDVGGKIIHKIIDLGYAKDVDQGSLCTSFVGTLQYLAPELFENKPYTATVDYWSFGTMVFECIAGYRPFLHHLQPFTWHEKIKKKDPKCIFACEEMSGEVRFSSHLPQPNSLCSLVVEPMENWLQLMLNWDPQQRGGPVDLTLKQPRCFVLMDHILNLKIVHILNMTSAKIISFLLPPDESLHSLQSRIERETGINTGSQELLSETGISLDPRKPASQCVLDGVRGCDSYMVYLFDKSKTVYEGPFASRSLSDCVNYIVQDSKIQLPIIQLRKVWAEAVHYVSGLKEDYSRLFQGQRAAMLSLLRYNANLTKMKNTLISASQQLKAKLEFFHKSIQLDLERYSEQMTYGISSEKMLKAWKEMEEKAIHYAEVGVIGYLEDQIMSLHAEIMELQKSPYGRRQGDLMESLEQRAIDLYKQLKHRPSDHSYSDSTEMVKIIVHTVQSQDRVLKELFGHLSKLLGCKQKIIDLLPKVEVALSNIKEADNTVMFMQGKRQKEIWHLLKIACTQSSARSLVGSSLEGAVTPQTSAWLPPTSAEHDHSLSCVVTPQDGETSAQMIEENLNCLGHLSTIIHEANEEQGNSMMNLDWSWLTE

KDR(h) (human) = KDR(h) (human) (UniProt P35968)
MAPKAP-K2(h) (human) = MAPKAP-K2(h) (human) (UniProt P49137)
MSK1(h) (human) = MSK1(h) (human) (UniProt O75582)
PDGFRα(V561D)(h) (human) = PDGFRα(V561D)(h) (human) (UniProt P16234)
Chain of PDGFRα(V561D)(h) (human) (P16234 550-1089 V561D limits assumed): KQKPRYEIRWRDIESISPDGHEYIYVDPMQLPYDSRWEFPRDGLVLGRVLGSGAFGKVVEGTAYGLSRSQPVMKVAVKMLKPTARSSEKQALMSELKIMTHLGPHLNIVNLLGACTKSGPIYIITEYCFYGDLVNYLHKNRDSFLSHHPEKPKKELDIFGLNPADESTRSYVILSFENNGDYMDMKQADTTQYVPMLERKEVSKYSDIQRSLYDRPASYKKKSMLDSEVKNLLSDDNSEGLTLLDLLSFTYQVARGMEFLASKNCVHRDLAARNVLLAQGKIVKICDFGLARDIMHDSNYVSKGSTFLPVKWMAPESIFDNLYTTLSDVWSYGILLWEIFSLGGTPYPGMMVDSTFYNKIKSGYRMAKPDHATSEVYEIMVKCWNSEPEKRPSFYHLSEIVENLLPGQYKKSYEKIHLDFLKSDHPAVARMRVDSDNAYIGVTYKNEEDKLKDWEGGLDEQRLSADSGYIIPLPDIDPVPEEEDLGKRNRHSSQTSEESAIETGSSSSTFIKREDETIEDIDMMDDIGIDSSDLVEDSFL

PDGFRα(h) (human) = PDGFRα(h) (human) (UniProt P16234)
Chain of PDGFRα(h) (human) (P16234 550-1089 limits assumed): as the sequence (P16234 550-1089 V561D limits assumed) above, with D12V counted along it

PKG1β(h) (human) = molecular target: T3, PKG1β(h) (human) (UniProt Q13976)
T3 sequence (looked up): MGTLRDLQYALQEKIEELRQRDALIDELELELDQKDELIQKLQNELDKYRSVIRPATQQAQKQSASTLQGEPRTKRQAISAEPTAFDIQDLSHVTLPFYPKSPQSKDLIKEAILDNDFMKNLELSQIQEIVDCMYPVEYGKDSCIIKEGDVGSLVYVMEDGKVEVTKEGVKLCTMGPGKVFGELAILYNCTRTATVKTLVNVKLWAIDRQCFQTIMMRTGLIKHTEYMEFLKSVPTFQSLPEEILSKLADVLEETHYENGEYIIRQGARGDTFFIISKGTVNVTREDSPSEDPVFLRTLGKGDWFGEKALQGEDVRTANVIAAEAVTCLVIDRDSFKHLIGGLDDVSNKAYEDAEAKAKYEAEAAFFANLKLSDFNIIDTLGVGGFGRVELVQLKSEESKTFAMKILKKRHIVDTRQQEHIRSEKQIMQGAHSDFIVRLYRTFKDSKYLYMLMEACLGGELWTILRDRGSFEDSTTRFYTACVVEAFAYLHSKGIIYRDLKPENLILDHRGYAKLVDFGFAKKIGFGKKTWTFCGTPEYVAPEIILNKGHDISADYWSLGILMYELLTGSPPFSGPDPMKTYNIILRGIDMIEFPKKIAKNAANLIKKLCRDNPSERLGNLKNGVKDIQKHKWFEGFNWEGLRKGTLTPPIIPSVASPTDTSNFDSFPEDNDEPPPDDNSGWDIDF

PhKγ2(h) (human) = molecular target: T4, PhKγ2(h) (human) (UniProt P15735)
T4 sequence (looked up): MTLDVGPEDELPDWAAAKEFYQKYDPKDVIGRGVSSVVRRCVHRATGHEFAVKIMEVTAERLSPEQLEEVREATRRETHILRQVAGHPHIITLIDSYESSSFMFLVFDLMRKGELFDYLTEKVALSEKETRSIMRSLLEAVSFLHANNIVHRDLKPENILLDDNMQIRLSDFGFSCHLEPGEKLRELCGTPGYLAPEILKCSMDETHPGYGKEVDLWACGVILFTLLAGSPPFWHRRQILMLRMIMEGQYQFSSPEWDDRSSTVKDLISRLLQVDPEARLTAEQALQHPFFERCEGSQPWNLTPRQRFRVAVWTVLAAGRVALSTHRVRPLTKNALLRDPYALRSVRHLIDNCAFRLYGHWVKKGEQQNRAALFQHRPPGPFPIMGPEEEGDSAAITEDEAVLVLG

Pyk2(h) (human) = Pyk2(h) (human) (UniProt Q14289)

% activity at 100 µM (CDK5/p35(h) (human)) [%]	% activity at 100 µM (DRAK1(h) (human)) [%]	% activity at 100 µM (EGFR(h) (human)) [%]	% activity at 100 µM (FGFR1(h) (human)) [%]	% activity at 100 µM (IKKα(h) (human)) [%]	% activity at 100 µM (KDR(h) (human)) [%]	% activity at 100 µM (MAPKAP-K2(h) (human)) [%]	% activity at 100 µM (MSK1(h) (human)) [%]	% activity at 100 µM (PDGFRα(V561D)(h) (human)) [%]	% activity at 100 µM (PDGFRα(h) (human)) [%]	% activity at 100 µM (PKG1β(h) (human)) [%]	% activity at 100 µM (PhKγ2(h) (human)) [%]	% activity at 100 µM (Pyk2(h) (human)) [%]	Substance
79	14	21	55	93	101	5	32	82	65	50	46	47	MMI-0300 (peptide)
76	14	16	59	87	94	5	28	100	40	53	38	34	MMI-0400 (peptide)
59	8	-1	18	50	15	9	8	146	40	24	16	46	MMI-0500 (peptide)
